Where a SMILES comes first, the peptide text is derived from it. Where no end group is shown, it is not given here. [ ]: non-standard residue; d: D form. Tyr(3-I) = N[C@@H](Cc1ccc(O)c(I)c1)C(=O)O; Nle = CCCC[C@H](N)C(=O)O
T1: CEGPCR5 (Caenorhabditis elegans, UniProt Q18179)
T1 sequence (Q18179 1-402): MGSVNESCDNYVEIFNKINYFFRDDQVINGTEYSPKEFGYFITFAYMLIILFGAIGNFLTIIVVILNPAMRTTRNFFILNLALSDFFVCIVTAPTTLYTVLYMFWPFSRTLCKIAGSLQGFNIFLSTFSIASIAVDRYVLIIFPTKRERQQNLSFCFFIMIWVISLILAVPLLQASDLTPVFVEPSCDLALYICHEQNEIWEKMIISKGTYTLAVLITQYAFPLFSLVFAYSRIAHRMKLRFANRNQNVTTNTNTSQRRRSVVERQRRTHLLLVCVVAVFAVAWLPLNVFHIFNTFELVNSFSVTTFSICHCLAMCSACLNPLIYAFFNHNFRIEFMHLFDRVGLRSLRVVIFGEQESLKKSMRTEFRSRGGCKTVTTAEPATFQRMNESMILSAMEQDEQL

T2: CEGPCR7 receptor (Caenorhabditis elegans, UniProt Q18534)
T2 construct: Each of the 22 putative GPCR-like receptor clones appeared to contain a full-length coding region; expressed in transfected cells; host or cells: CHO-K1, transient, pCR3.1 clone, 37 to 28 C temperature shift
T2 sequence (Q18534 1-457): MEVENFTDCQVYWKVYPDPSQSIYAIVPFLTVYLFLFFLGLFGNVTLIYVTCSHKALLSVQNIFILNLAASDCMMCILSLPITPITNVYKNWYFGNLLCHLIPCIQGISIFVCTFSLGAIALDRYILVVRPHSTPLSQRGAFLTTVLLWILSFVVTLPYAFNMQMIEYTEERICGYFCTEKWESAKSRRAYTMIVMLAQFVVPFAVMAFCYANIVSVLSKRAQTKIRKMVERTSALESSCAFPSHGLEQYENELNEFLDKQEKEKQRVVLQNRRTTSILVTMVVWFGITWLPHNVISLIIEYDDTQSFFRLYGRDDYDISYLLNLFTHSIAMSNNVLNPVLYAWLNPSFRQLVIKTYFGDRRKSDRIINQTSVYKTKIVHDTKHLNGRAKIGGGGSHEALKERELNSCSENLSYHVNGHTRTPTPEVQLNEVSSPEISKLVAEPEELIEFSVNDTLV

T3: CEGPCR4 (C. elegans)
T3 construct: Expressed in CHO cells; also called CEGPCR4 receptor; CEGPCR4/CHO membranes
T3 chain: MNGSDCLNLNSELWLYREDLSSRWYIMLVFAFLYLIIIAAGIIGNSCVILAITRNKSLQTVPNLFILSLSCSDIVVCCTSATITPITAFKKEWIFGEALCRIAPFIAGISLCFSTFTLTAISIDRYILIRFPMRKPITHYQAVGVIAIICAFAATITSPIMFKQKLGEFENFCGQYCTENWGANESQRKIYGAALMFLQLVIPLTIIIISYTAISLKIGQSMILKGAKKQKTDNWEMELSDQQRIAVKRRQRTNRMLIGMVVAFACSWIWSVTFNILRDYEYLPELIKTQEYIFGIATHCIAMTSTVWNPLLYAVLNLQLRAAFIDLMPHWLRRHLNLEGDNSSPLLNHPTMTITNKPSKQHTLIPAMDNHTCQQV


Key:
[1] = biological target: T1, CEGPCR5; experiment: [35S]GTPγS binding assay, CEGPCR5 expressed in CHO cells; format: biochemical, C. elegans; conditions: for EC50: EC50 range
Description: (§1) Recombinant pCR3.1 clones encoding invertebrate GPCR-like receptors were transformed into wild-type CHO-K1 cells and functional expression was achieved using a temperature-shift incubation protocol. The CHO-K1 cells were cultured at 37° C. in a humidified atmosphere of 5% CO2 in air in DMEM medium supplemented with 10% heat-inactivated fetal bovine serum (i.e., FBS), 10 μg/ml gentamicin, and 0.1 mM nonessential amino acids to give complete DMEM medium. Additionally, for incubations at temperatures lower than 37° C., the medium was fortified with 10 mM HEPES (pH 7.4). Cells were transfected with recombinant pCR3.1 clones containing GPCR-like receptor DNAs, using LipofectAMINE PLUS™, essentially according to the manufacturer's instructions. […] In separate plastic tubes, PLUS (20 μl/plate; Life Technologies) was added to 0.75 ml/plate of recombinant plasmid DNA in OptiMEM (5 μg/plate; Gibco/BRL—Life Technologies), mixed and incubated at room temperature for 15 minutes. Separately, LipofectAMINE (30 μl/plate) was mixed with 0.75 ml OptiMEM and added to the pre-complexed DNA/PLUS mixture and incubated at room temperature for 15 minutes. The culture medium was then replaced with serum-free transfection medium (DMEM, 5 ml/plate). The DNA-PLUS-LipofectAMINE complex was then added to the plates (1.5 ml/plate) and mixed gently into the medium, followed by a 3 hour incubation at 37° C. in 5% CO2. At this time, the medium was supplemented with complete DMEM medium containing 20% FBS (6.5 ml/plate) and incubation was continued at 37° C. in 5% CO2. After a total of 24 hours at 37° C. in 5% CO2, the medium was replaced with complete DMEM medium fortified with 10 mM HEPES (10 ml/plate) and the cells were moved to an incubator maintained at 28-30° C. in a humidified atmosphere of 5% CO2 in air. The incubation continued for an additional 24 hours, typically at the lower temperature indicated above. A plasmid encoding Green Fluorescent Protein (i.e., GFP, 4 μg/plate) was used for transient GFP expression in CHO-K1 cells to estimate the transfection yields under the same conditions as used for GPCR-like receptor polynucleotides.
(§2) To assess expression, membranes were prepared from transfected CHO-K1 cells. Transfected cells were washed once with ice-cold Dulbecco's phosphate-buffered saline (i.e., PBS), 5 ml per 10 cm plate, and the cells were scraped into 5 ml of the same buffer. Cell suspensions from multiple plates were combined and centrifuged at 500×g for 10 minutes at 4° C. The cell pellet was reconstituted in ice-cold TEE (25 mM Tris, pH 7.4, 5 mM EGTA, 5 mM EDTA). Convenient aliquots were snap-frozen in liquid nitrogen and stored at −70° C. After thawing, the cells were homogenized and centrifuged at 500×g for 5 minutes at 4° C. to pellet nuclei and unbroken cells. Tile supernatant was centrifuged at 47,000×g for 30 minutes at 4° C. The membrane pellet was washed once with TEE, resuspended in 20 mM HEPES, pH 7.4, 100 mM NaCl, 10 mM MgCl2, 1 mM EDTA (assay buffer), distributed into aliquots of 0.5-1.0 ml, and frozen in liquid nitrogen. Membrane aliquots were stored at −70° C. Membrane protein concentration was determined using the BCA Protein Assay Reagent from Pierce (Rockford, Ill.), with bovine serum albumin (i.e., BSA) as a standard.
Aliquots of cell membranes prepared as described above and stored at −70° C. were thawed, homogenized, and diluted into buffer containing 20 mM HEPES, pH 7.4, 10 mM MgCl2, 1 mM EDTA, and 100 mM NaCl at a concentration of 10-50 μg/ml. Reaction mixtures were prepared in 96-well polypropylene plate, Nunc. Twenty microliters of a 10× putative modulator compound (including but not limited to potential peptide ligands) solution or a water control (20 μl), 18.2 µM GDP (0.11 ml, 10 μM final concentration), and a membrane preparation were mixed and placed on ice. The modulator/ligand-GDP-membrane mixtures were incubated for 20 minutes at room temperature on a shaking platform and then placed on ice.

[2] = biological target: T2, CEGPCR7 receptor; experiment: [35S]GTPγS binding assay, membranes of CHO cells transfected with CEGPCR7; format: biochemical, C. elegans
Description: as §1, §2
Aliquots of cell membranes prepared as described above and stored at −70° C. were thawed, homogenized, and diluted into buffer containing 20 mM HEPES, pH 7.4, 10 mM MgCl2, 1 mM EDTA, and 100 mM NaCl at a concentration of 10-50 μg/ml.

[3] = biological target: CEGPCR19.2 (Caenorhabditis elegans, UniProt H2KZY4); experiment: calcium mobilization assay (FLIPR), transiently transfected CHO cells, CEGPCR19.2; format: cell-based, C. elegans; conditions: Table 13; peptides at 10 μM
Description: Changes in intracellular calcium levels are another recognized indicator of […] receptor activity, and such assays can be employed to assay for modulators of GPCR-like receptor activity. For example, CHO cells stably transfected with a GPCR-like receptor expression construct are plated at a density of 4×10^4 cells/well in Packard black-walled 96-well plates specially designed to isolate fluorescent signals to individual wells. The cells are incubated for 60 minutes at 37° C. in modified Dulbecco's PBS (D-PBS), containing 36 mg/L pyruvate and 1 g/L glucose with the addition of 2.5 mM probenecid (Sigma Chemical Co.) and one of four calcium indicator dyes (Fluo3™ AM, Fluo4™ AM, Calcium Green™-1 AM, or Oregon Green™ 488 BAPTA-1 AM) at a concentration of 4 μM. Plates are washed once with modified D-PBS […] 1% fetal bovine serum and incubated for 10 minutes at 37° C. to remove residual dye from the cellular membrane. In addition, a series of washes with modified D-PBS is performed immediately prior to activation of the calcium response.
Calcium response is initiated by the addition of one or more candidate receptor agonist compounds, or a positive control such as a calcium ionophore A23187 (10 μM), or ATP (4 μM). Fluorescence is measured by Molecular Device's FLIPR with an argon laser, excitation at 488 nm. […] Basal fluorescence of cells was measured for 20 seconds prior to addition of agonist, ATP, or A23187, and was subtracted from the response signal. The calcium signal is measured for approximately 200 seconds, taking readings every two seconds. […]
This appears especially useful for the assessment of possible activation of orphan GPCRs (i.e., GPCRs having unknown functions and unknown signaling pathways). […] Because the GTPγS assay is known to poorly recognize GPCRs coupled to the Gq class of G-proteins, a Ca^+2 mobilization assay, based on a FLIPR readout, was used as well to evaluate putative Gq-couplcd orphan GPCRs transiently transfected into CHO cells. […] Without the temperature downshift, expression of functional receptor could not be detected. […]

[4] = biological target: T3, CEGPCR4; experiment: competition binding assay, CEGPCR4/CHO membranes; IC50 range printed once for block r19-r25

CEGPCR19.2, sequence (H2KZY4 entry or part of it): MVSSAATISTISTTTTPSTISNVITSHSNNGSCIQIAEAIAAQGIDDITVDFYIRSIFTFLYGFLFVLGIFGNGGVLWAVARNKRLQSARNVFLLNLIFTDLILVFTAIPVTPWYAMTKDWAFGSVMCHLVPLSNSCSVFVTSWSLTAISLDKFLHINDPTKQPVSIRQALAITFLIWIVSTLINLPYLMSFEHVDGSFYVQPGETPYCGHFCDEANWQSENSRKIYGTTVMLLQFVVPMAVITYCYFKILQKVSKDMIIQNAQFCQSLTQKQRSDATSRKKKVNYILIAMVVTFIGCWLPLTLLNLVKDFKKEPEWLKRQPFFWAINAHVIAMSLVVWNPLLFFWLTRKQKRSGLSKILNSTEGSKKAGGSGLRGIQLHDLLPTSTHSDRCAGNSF

| Molecule | activity at single concentration [3] | binding result [4] | also measured |
| --- | --- | --- | --- |
| CC(C)C[C@H](NC(=O)CNC(=O)[C@@H](N)Cc1ccc(O)c(I)c1)C(=O)NCC(=O)N1CCC[C@H]1C(=O)N[C@@H](CCCNC(=N)N)C(=O)N1CCC[C@H]1C(=O)N[C@@H](CC(C)C)C(=O)N[C@@H](CCCNC(=N)N)C(=O)N[C@@H](Cc1ccccc1)C(N)=O [[I]Y^0-GLGPRPLRF-NH2] (H-[Tyr(3-I)]GLGPRPLRF-NH2) |  |  | EC50 [1]: 176 to 273 nM; EC50 ([1]; Table 9, one range for the group of peptides): 80 to 800 nM; less potent than AF9 ([1]; ratio of potency): about 200 fold; EC50 ([2]; EC50, single values): 237 nM; EC50 ([2]; EC50 range, Table 7, one range for the group of peptides): 200 to 250 nM |
| SQPNFLRF-NH2 | peptides active |  |  |
| IL[Nle]RF-NH2 (N-terminus assumed; SMILES CCCC[C@H](NC(=O)[C@H](CC(C)C)NC(=O)[C@@H](N)[C@@H](C)CC)C(=O)N[C@@H](CCCNC(=N)N)C(=O)N[C@@H](Cc1ccccc1)C(N)=O, synthetic) [ILNleRF-NH2] |  | binds |  |

Second part, led by results:

| activity at single concentration [3] | binding result [4] | Molecule | also measured |
| --- | --- | --- | --- |
| peptides active |  | KPNFIRF-NH2 |  |
| peptides active |  | LQPNFLRF-NH2 |  |
|  | binds | GNSFLRF-NH2 (also called GNSFLRFamide) [GNSFLRF-NH2] |  |
|  | binds | KPNFLRF-NH2 (flp1) [KPNFLRF-NH2] |  |

Source: patent US6632621B1, “G protein-coupled receptor-like receptors and modulators thereof” (priority 1999, dated 2003)
